Measurements published in US20220315628A1.

Assays:
[1] = target: Y1G2 peptide (XGVECK-biotin with X = Tyr); test: SPR; KD for the Tyr peptide divided by KD for the Trp peptide
[2] = target: W1G2 peptide (XGVECK-biotin with X = Trp); test: SPR; KD for the Trp peptide divided by KD for the Trp peptide
[3] = target: F1G2 peptide (XGVECK-biotin with X = Phe); test: SPR; KD for the Phe peptide divided by KD for the Trp peptide
[4] = target: Y1G2 peptide (XGVECK-biotin with X = Tyr); test: SPR dissociation curves; biotinylated peptide on streptavidin chip
[5] = target: W1G2 peptide (XGVECK-biotin with X = Trp); test: as above
[6] = target: F1G2 peptide (XGVECK-biotin with X = Phe); test: as above
[7] = target: F1G2 peptide (XGVECK-biotin with X = Phe); test: SPR; KD for the Phe peptide divided by KD for the Phe peptide
[8] = target: F1G2 peptide (XGVECK-biotin with X = Phe); test: SPR; KD for the Phe peptide divided by KD for the Tyr peptide
[9] = target: W1G2 peptide (XGVECK-biotin with X = Trp); test: SPR; KD for the Trp peptide divided by KD for the Tyr peptide
[10] = target: Y1G2 peptide (XGVECK-biotin with X = Tyr); test: SPR; KD for the Tyr peptide divided by KD for the Phe peptide
[11] = target: Y1G2 peptide (XGVECK-biotin with X = Tyr); test: SPR; KD for the Tyr peptide divided by KD for the Tyr peptide
[12] = target: W1G2 peptide (XGVECK-biotin with X = Trp); test: SPR; KD for the Trp peptide divided by KD for the Phe peptide
[13] = target: Y1G2 peptide (XGVECK-biotin with X = Tyr); test: SPR, steady state; biotinylated peptide on streptavidin chip, protein in solution
[14] = target: W1G2 peptide (XGVECK-biotin with X = Trp); test: as above
[15] = target: F1G2 peptide (XGVECK-biotin with X = Phe); test: as above

B1: A. tumefaciens ClpS2 [Pro34 Arg35 Glu36], wild-type, expressed in and purified from E. coli (protein)
chain: MGHHHHHHENLYFQGSDSPVDLKPKPKVKPKLERPKLYKVMLLNDDYTPREFVTVVLKAVFRMSEDTGRRVMMTAHRFGSAVVVVCERDIAETKAKEATDLGKEAGFPLMFTTEPEE
Binder B1 has a Selectivity for Tyr, Tyr/Trp [1] of 3.43, a Selectivity for Trp, Trp/Trp [2] of 1 and a Selectivity for Phe, Phe/Trp [3] of 0.71. The koff [4] was 1.16 s⁻¹, the koff [5] was 1.32 s⁻¹ and the koff [6] was 0.93 s⁻¹. It also gave a Selectivity for Phe, Phe/Phe [7] of 1, a Selectivity for Phe, Phe/Tyr [8] of 0.21 and a Selectivity for Trp, Trp/Tyr [9] of 0.29. It also gave a Selectivity for Tyr, Tyr/Phe [10] of 4.86, a Selectivity for Tyr, Tyr/Tyr [11] of 1 and a Selectivity for Trp, Trp/Phe [12] of 1.42. It also gave a Kd [13] of 63 µM, a Kd [14] of 18.4 µM and a Kd [15] of 13 µM.
